Laboratory results: the supplement of paper PMC10567573

B1: SMARCE1 (parent)
chain: YHNSPAYLAYINAKSRAEAALEEE

Variants of: B1
Assay: protein stability index of a GFP-peptide fusion (GPS, HEK-293T) (PSI 1-6); higher = more stable
Conditions: c terminus: a fixed tail appended
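Also: lentivirally expressed fusions sorted by FACS into six bins by GFP to DsRed ratio, PSI derived from sequencing read proportions per bin multiplied by bin number.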

Variant | protein stability index
YHNSPAYLAYINAKSRAEHALEEE [A19H] | 2.02
YHNSPAYLAYINAKSRAEIALEEE [A19I] | 2.05
YHNSPAYLAYINAKSRAEKALEEE [A19K] | 2.05
YHNSPAYLAYINAKSRAELALEEE [A19L] | 2.49
YHNSPAYLAYINAKSRAEMALEEE [A19M] | 2.24
YHNSPAYLAYINAKSRAENALEEE [A19N] | 2.43
YHNSPAYLAYINAKSRAEPALEEE [A19P] | 1.92
YHNSPAYLAYINAKSRAEQALEEE [A19Q] | 2.12
YHNSPAYLAYINAKSRAERALEEE [A19R] | 2.59
YHNSPAYLAYINAKSRAESALEEE [A19S] | 2.06
YHNSPAYLAYINAKSRAETALEEE [A19T] | 2.41
YHNSPAYLAYINAKSRAEVALEEE [A19V] | 2.58
YHNSPAYLAYINAKSRAEWALEEE [A19W] | 2.48
YHNSPAYLAYINAKSRAEYALEEE [A19Y] | 2.46
YHNSPAYLAYINAKSRAEACLEEE [A20C] | 2.27
YHNSPAYLAYINAKSRAEADLEEE [A20D] | 2.97
YHNSPAYLAYINAKSRAEAELEEE [A20E] | 2.32
YHNSPAYLAYINAKSRAEAFLEEE [A20F] | 1.69
YHNSPAYLAYINAKSRAEAGLEEE [A20G] | 3.01
YHNSPAYLAYINAKSRAEAHLEEE [A20H] | 2.51
YHNSPAYLAYINAKSRAEAILEEE [A20I] | 2.25
YHNSPAYLAYINAKSRAEAKLEEE [A20K] | 2.71
YHNSPAYLAYINAKSRAEALLEEE [A20L] | 2.15
YHNSPAYLAYINAKSRAEAMLEEE [A20M] | 1.32

Variant | protein stability index
YHNSPAYLAYINAKSRAEANLEEE [A20N] | 2.42
YHNSPAYLAYINAKSRAEAPLEEE [A20P] | 2.66
YHNSPAYLAYINAKSRAEAQLEEE [A20Q] | 1.79
YHNSPAYLAYINAKSRAEARLEEE [A20R] | 2.89
YHNSPAYLAYINAKSRAEASLEEE [A20S] | 1.84
YHNSPAYLAYINAKSRAEATLEEE [A20T] | 1.61
YHNSPAYLAYINAKSRAEAVLEEE [A20V] | 2.56
YHNSPAYLAYINAKSRAEAWLEEE [A20W] | 1.93
YHNSPAYLAYINAKSRAEAYLEEE [A20Y] | 3.29
YHNSPAYLAYINAKSRAEAAAEEE [L21A] | 2.26
YHNSPAYLAYINAKSRAEAACEEE [L21C] | 2.89
YHNSPAYLAYINAKSRAEAADEEE [L21D] | 1.88
YHNSPAYLAYINAKSRAEAAEEEE [L21E] | 1.84
YHNSPAYLAYINAKSRAEAAFEEE [L21F] | 3.43
YHNSPAYLAYINAKSRAEAAGEEE [L21G] | 2.15
YHNSPAYLAYINAKSRAEAAHEEE [L21H] | 2.77
YHNSPAYLAYINAKSRAEAAIEEE [L21I] | 3.51
YHNSPAYLAYINAKSRAEAAKEEE [L21K] | 2.51
YHNSPAYLAYINAKSRAEAAMEEE [L21M] | 2.04
YHNSPAYLAYINAKSRAEAANEEE [L21N] | 2.46
YHNSPAYLAYINAKSRAEAAPEEE [L21P] | 3.6
YHNSPAYLAYINAKSRAEAAQEEE [L21Q] | 2.07
YHNSPAYLAYINAKSRAEAAREEE [L21R] | 2.1
YHNSPAYLAYINAKSRAEAASEEE [L21S] | 1.95

Variant | protein stability index
YHNSPAYLAYINAKSRAEAATEEE [L21T] | 1.59
YHNSPAYLAYINAKSRAEAAVEEE [L21V] | 2.67
YHNSPAYLAYINAKSRAEAAWEEE [L21W] | 2.94
YHNSPAYLAYINAKSRAEAAYEEE [L21Y] | 1.94
YHNSPAYLAYINAKSRAEAALAEE [E22A] | 2.7
YHNSPAYLAYINAKSRAEAALCEE [E22C] | 2.17
YHNSPAYLAYINAKSRAEAALDEE [E22D] | 2.21
YHNSPAYLAYINAKSRAEAALFEE [E22F] | 2.04
YHNSPAYLAYINAKSRAEAALGEE [E22G] | 2.67
YHNSPAYLAYINAKSRAEAALHEE [E22H] | 2.83
YHNSPAYLAYINAKSRAEAALIEE [E22I] | 2.59
YHNSPAYLAYINAKSRAEAALKEE [E22K] | 1.86
YHNSPAYLAYINAKSRAEAALLEE [E22L] | 4.41
YHNSPAYLAYINAKSRAEAALMEE [E22M] | 2.01
YHNSPAYLAYINAKSRAEAALNEE [E22N] | 2.44
YHNSPAYLAYINAKSRAEAALPEE [E22P] | 2.73
YHNSPAYLAYINAKSRAEAALQEE [E22Q] | 1.91
YHNSPAYLAYINAKSRAEAALREE [E22R] | 2.25
YHNSPAYLAYINAKSRAEAALSEE [E22S] | 2.41
YHNSPAYLAYINAKSRAEAALTEE [E22T] | 2.36
YHNSPAYLAYINAKSRAEAALVEE [E22V] | 2.73
YHNSPAYLAYINAKSRAEAALWEE [E22W] | 2.29
YHNSPAYLAYINAKSRAEAALYEE [E22Y] | 1.9
YHNSPAYLAYINAKSRAEAALEAE [E23A] | 2.34

Variant | protein stability index
YHNSPAYLAYINAKSRAEAALECE [E23C] | 2.79
YHNSPAYLAYINAKSRAEAALEDE [E23D] | 1.54
YHNSPAYLAYINAKSRAEAALEFE [E23F] | 2.31
YHNSPAYLAYINAKSRAEAALEGE [E23G] | 3.34
YHNSPAYLAYINAKSRAEAALEHE [E23H] | 2.13
YHNSPAYLAYINAKSRAEAALEIE [E23I] | 2.79
YHNSPAYLAYINAKSRAEAALEKE [E23K] | 2.05
YHNSPAYLAYINAKSRAEAALELE [E23L] | 1.59
YHNSPAYLAYINAKSRAEAALEME [E23M] | 1.52
YHNSPAYLAYINAKSRAEAALENE [E23N] | 1.57
YHNSPAYLAYINAKSRAEAALEPE [E23P] | 2.58
YHNSPAYLAYINAKSRAEAALEQE [E23Q] | 1.59
YHNSPAYLAYINAKSRAEAALERE [E23R] | 1.82
YHNSPAYLAYINAKSRAEAALESE [E23S] | 1.54
YHNSPAYLAYINAKSRAEAALETE [E23T] | 3.01
YHNSPAYLAYINAKSRAEAALEVE [E23V] | 2.44
YHNSPAYLAYINAKSRAEAALEWE [E23W] | 1.81
YHNSPAYLAYINAKSRAEAALEYE [E23Y] | 1.58
YHNSPAYLAYINAKSRAEAALEEA [E24A] | 2.12
YHNSPAYLAYINAKSRAEAALEEC [E24C] | 2.38
YHNSPAYLAYINAKSRAEAALEED [E24D] | 2.3
YHNSPAYLAYINAKSRAEAALEEF [E24F] | 2.59
